{
  "source": "patent US20040157268",
  "proteins": {"B1": {"name": "Tobacco Etch Virus (TEV) protease, recombinant (protein)", "chain": "GESLFKGPRDYNPISSTICHLTNESDGHTTSLYGIGFGPFIITNKHLFRRNNGTLLVQSLHGVFKVKNTTTLQQHLIDGRDMIIIRMPKDFPPFPQKLKFREPQREERICLVTTNFQTKSMSSMVSDTSCTFPSSDGIFWKHWIQTKDGQCGSPLVSTRDGFIVGIHSASNFTNTNNYFTSVPKNFMELLTNQEAQQWVSGWRLNADSVLWGGHKVFMSKPEEPFQPVKEATQLMNELVYSQ"}},
  "biological_target": "β2 adrenergic receptor modified to have a Flag epitope at the amino terminus and a TEV protease site within the third intracellular loop between residues 254 and 260 of the native protein",
  "data": [
    {"protein": "B1", "values": [
      {"measurement": "Ratio of TEV-cleaved to uncleaved receptor (axis 'cut/uncut'), from the blot of FIG. 11B", "result": "Two bars, no error bars and no printed values. The 'Control' bar ends just above the 0.3 tick. The 'Isoproterenol' bar ends between the 1.2 and 1.5 ticks, several times higher than the control."},
      {"measurement": "TEV cleavage of the receptor (Western blot; ratio of cleaved to uncleaved receptor), with and without the agonist isoproterenol", "result": "TEV cleavage of the 12 adrenergic receptor was enhanced in the presence of isoproterenol"},
      {"measurement": "TEV cleavage of the receptor's third-loop TEV site, seen as the lower (cleaved, N-terminal) band on a Western blot probed with M1 antibody", "result": "No lower band without TEV (TEV-/ISO-). Very faint lower band with TEV alone (TEV+/ISO-). Strong lower band and a weaker upper band with TEV plus isoproterenol (TEV+/ISO+)."}
    ]}
  ]
}
